This assay concerns the target receptors on glutaraldehyde-fixed HeLa cells. The assay can be described thus: competition ligand assay on fixed HeLa cells; 100 µg E. coli lysate (F11.2 cDNA); competitor: ^35 S-labeled trichomonad AP65; densitometry of fluorograms.

“recombinant AP65-1 adhesin expressed in E. coli from cDNA clone F11.2 (ligand)” showed a percent decrease of parasite AP65 binding of 55%.

The values above are taken from patent publication US5922563.
